Residue numbers refer to the chain shown, from its start. Like-named read-outs stand apart in the source and are kept apart here.
Legend:
AtPOT1a OB1 [1] = biological target: T1, AtPOT1a OB1 (Arabidopsis thaliana, UniProt Q56Y52 1-158); test: competition
T1 sequence: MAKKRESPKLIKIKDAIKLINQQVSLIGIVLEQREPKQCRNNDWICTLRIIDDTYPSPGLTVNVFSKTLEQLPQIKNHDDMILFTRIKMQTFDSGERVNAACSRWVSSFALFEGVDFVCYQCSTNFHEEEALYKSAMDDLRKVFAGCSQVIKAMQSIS

AtPOT1a OB1 [2] = biological target: T1, AtPOT1a OB1; test: EMSA
AtPOT1b OB1 = biological target: T2, AtPOT1b OB1 (Arabidopsis thaliana, UniProt Q6NKX5 1-159); test: EMSA
T2 sequence: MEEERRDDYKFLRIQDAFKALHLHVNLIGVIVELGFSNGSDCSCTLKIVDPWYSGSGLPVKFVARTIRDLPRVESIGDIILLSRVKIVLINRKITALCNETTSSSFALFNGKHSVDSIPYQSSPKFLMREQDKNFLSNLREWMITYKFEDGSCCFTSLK

AtPOT1b OB1 V63F = biological target: T3, AtPOT1b OB1 V63F (Arabidopsis thaliana, UniProt Q6NKX5 1-159, V63F); test: EMSA
T3 sequence: T2 sequence with V63F

AtPOT1a OB1 F65A = biological target: T4, AtPOT1a OB1 F65A (Arabidopsis thaliana, UniProt Q56Y52 1-158, F65A); test: EMSA
T4 sequence: T1 sequence with F65A

AtPOT1a OB1 [3] = biological target: T1, AtPOT1a OB1; test: EMSA; remark: listed apart in the source
AtPOT1a OB1 [4] = biological target: T1, AtPOT1a OB1; test: EMSA; remark: listed apart in the source
AtPOT1a OB1 [5] = biological target: T1, AtPOT1a OB1; test: EMSA; remark: listed apart in the source

TTAATTAACCCGGGGATCCGGCTTGATCAACGAATGATCC (ssDNA) [NS DNA]
binding signal (AtPOT1a OB1 [1]): 10 % reduction of binding

TTTAGGGTTTAGGGTTTAGGGTTTAGGGTTTAGGG (ssDNA) [(TTTAGGG)5]
Kd (AtPOT1a OB1 [2]): 230 ± 30 nM | binding result (AtPOT1b OB1): no binding | binding result (AtPOT1b OB1 V63F): binds | binding result (AtPOT1a OB1 F65A): no binding

TTTAGGGTTTAGGG (ssDNA) [(TTTAGGG)2]
Kd (AtPOT1a OB1 [2]): ~1000 nM

UUUAGGGUUUAGGGUUUAGGGUUUAGGGUUUAGGG (ssRNA) [(UUUAGGG)5]
binding signal (AtPOT1a OB1 [1]): 10 % reduction of binding

TAGGGTTTAGG (ssDNA) [minimal binding site 11-mer]
binding result (AtPOT1a OB1 [3]): binds

TTAGGGTTTAGG (ssDNA) [12-mer telomere]
binding result (AtPOT1a OB1 [4]): binds

TTTAGGG (ssDNA)
binding result (AtPOT1a OB1 [5]): no binding

— paper PMC5175356
